Experimental data reported in the supplement of paper PMC7125110.
± gives the standard error. This sample holds only a part of the variants without activity.

B1: glmS ribozyme (parent)
chain: AUAAAAGCGCCAGAACUACAGAAAUGUAGUUGACGAGGAGGAGGUUUAUCGAAUUUUCGGCGGAUGCCUCCAAA

Tests used:
Conditions in all cases: with glucosamine-6-phosphate
glucosamine-6-phosphate [1] = variants of: B1; assay: self-cleavage kobs at 640 uM GlcN6P; higher = faster cleavage; RNA array
In short: (§1)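 The measurements used barcoded ribozyme variants on sequenced MiSeq chips, transcribed in situ by E. coli RNA polymerase and tracked at 37 °C with a hybridised Cy3 probe. Glucosamine-6-phosphate, 40 μM to 10 mM in HEPES/KCl/Mg(OAc)2 buffer, was flowed in while tiles were imaged over ~14 h. Baseline-normalised signals, also normalised to non-cleaving reference variants, gave per-tile medians that were fit to one- or two-exponential decays for kobs. kcat and KM resulted from weighted Michaelis–Menten fits across concentrations.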

glucosamine-6-phosphate [2] = variants of: B1; assay: self-cleavage kobs at 2500 uM GlcN6P; higher = faster cleavage; RNA array
In short: as §1

glucosamine-6-phosphate [3] = variants of: B1; assay: self-cleavage kobs at 10000 uM GlcN6P; higher = faster cleavage; RNA array
In short: as §1

| Variant | self-cleavage kobs at 640 uM GlcN6P (glucosamine-6-phosphate [1]) | self-cleavage kobs at 2500 uM GlcN6P (glucosamine-6-phosphate [2]) | self-cleavage kobs at 10000 uM GlcN6P (glucosamine-6-phosphate [3]) |
| --- | --- | --- | --- |
| C11U U30A C34U A36G U69A | 0.000685 ± 0.00016 s⁻¹ | – | – |
| G13U U56G C70G | 6.47e-05 ± 3.1e-05 s⁻¹ | 4.09e-05 ± 1.9e-05 s⁻¹ | – |
| A15U U30A C68G | 9.94e-05 ± 2.9e-05 s⁻¹ | – | – |
| A14G U31G C50G | 0.000132 ± 3.6e-05 s⁻¹ | – | – |
| A14U A33G G38A | < 1e-05 s⁻¹ | < 1e-05 s⁻¹ | – |
| A12C G35A A36C U56G G60C | < 1e-05 s⁻¹ | < 1e-05 s⁻¹ | – |
| A14G G35A U45G G66U | < 1e-05 s⁻¹ | < 1e-05 s⁻¹ | – |
| A15G G29A A42C | < 1e-05 s⁻¹ | – | – |
| A15G G35A G44U C50G G59C G60C | < 1e-05 s⁻¹ | – | – |
| A12U C16A C50A A64G | < 1e-05 s⁻¹ | – | – |
| G13U A39G U55G | 0.000281 ± 8e-05 s⁻¹ | 0.000683 ± 0.00022 s⁻¹ | 0.0028 ± 0.00059 s⁻¹ |
| A14G U47A G66C | 0.000364 ± 0.00011 s⁻¹ | 0.00101 ± 0.00023 s⁻¹ | 0.00125 ± 0.00022 s⁻¹ |
| A14U C34U G37C G51A U55C | < 1e-05 s⁻¹ | – | – |
| A14G U54C C61G G62C | < 1e-05 s⁻¹ | – | – |
| C16A C68G | 0.000279 ± 0.00013 s⁻¹ | 3.3e-05 ± 9.2e-06 s⁻¹ | – |
| A14G A42G G59C | < 1e-05 s⁻¹ | – | – |
| C16A G60U U69G | < 1e-05 s⁻¹ | – | – |
| G13A A39U U55C | 4.33e-05 ± 1.4e-05 s⁻¹ | 0.000128 ± 2.9e-05 s⁻¹ | – |
| A12U G44C A48U C58G C67G C71U | < 1e-05 s⁻¹ | < 1e-05 s⁻¹ | – |
| C16U U30A G44C G63C | < 1e-05 s⁻¹ | – | < 1e-05 s⁻¹ |
| G13C A14C G32U U69C | 8.31e-05 ± 2.1e-05 s⁻¹ | 7.03e-05 ± 2e-05 s⁻¹ | – |
| A14U U47C C58G C68G | 5.55e-05 ± 1.6e-05 s⁻¹ | 0.000171 ± 4e-05 s⁻¹ | – |

| Variant | self-cleavage kobs at 640 uM GlcN6P (glucosamine-6-phosphate [1]) | self-cleavage kobs at 2500 uM GlcN6P (glucosamine-6-phosphate [2]) | self-cleavage kobs at 10000 uM GlcN6P (glucosamine-6-phosphate [3]) |
| --- | --- | --- | --- |
| A12U G32C C50G C70G | 0.000371 ± 0.00015 s⁻¹ | 0.000257 ± 8.3e-05 s⁻¹ | – |
| A12C U30C A39U | 0.000221 ± 4.3e-05 s⁻¹ | 0.000452 ± 0.00012 s⁻¹ | – |
| A15U G66C C68A | 8.24e-05 ± 3.9e-05 s⁻¹ | 6.09e-05 ± 2.8e-05 s⁻¹ | – |
| A14U C16A G29A | 8.7e-05 ± 2.4e-05 s⁻¹ | – | – |
| G13A U45C G66A | 0.000124 ± 3e-05 s⁻¹ | 9.89e-05 ± 2.4e-05 s⁻¹ | 0.000343 ± 0.00011 s⁻¹ |
| A15G A48G | 4.16e-05 ± 1.4e-05 s⁻¹ | 0.000216 ± 4e-05 s⁻¹ | 8.59e-05 ± 1.3e-05 s⁻¹ |
| G13U G29A U31A G37C | < 1e-05 s⁻¹ | – | – |
| G13C G44C G60A | < 1e-05 s⁻¹ | – | – |
| A14U C68G | 6.11e-05 ± 1.7e-05 s⁻¹ | 3.41e-05 ± 1.3e-05 s⁻¹ | – |
| G13C U46A G66A C70A | < 1e-05 s⁻¹ | – | – |
| A12U C16G G32A | 9.86e-05 ± 2.9e-05 s⁻¹ | 0.000137 ± 4.8e-05 s⁻¹ | – |
| A14U A15G C16A A52U A53U | < 1e-05 s⁻¹ | – | – |
| A12C A33U A52G U54G | < 1e-05 s⁻¹ | – | – |
| A14G U45G C50G C68G | < 1e-05 s⁻¹ | – | – |
| A15G C16U C67U | 0.000521 ± 0.00014 s⁻¹ | – | – |
| A12C U46A G51U U54G G60A C61A C70A | < 1e-05 s⁻¹ | – | – |
| A12C A48C G60C G62C C68A | < 1e-05 s⁻¹ | – | – |
| G13U A14U G44C A52G C58G | < 1e-05 s⁻¹ | – | – |
| C16U G43A C67G | 0.000254 ± 6.6e-05 s⁻¹ | – | 0.000419 ± 0.0001 s⁻¹ |
| G13U G43C C67U | < 1e-05 s⁻¹ | < 1e-05 s⁻¹ | < 1e-05 s⁻¹ |
| A12U G32U G41A U56A A64U U65A | < 1e-05 s⁻¹ | < 1e-05 s⁻¹ | – |
| G13A C16G G59C C68A | 0.000133 ± 3.8e-05 s⁻¹ | – | – |

| Variant | self-cleavage kobs at 640 uM GlcN6P (glucosamine-6-phosphate [1]) | self-cleavage kobs at 2500 uM GlcN6P (glucosamine-6-phosphate [2]) | self-cleavage kobs at 10000 uM GlcN6P (glucosamine-6-phosphate [3]) |
| --- | --- | --- | --- |
| A14G A15C G29A U47C C67A C71A | < 1e-05 s⁻¹ | – | – |
| A12U G32A G41C G62U C68U | < 1e-05 s⁻¹ | < 1e-05 s⁻¹ | – |
| A14C A33C G44C G59U | < 1e-05 s⁻¹ | < 1e-05 s⁻¹ | – |
| C16U G59C U65G | < 1e-05 s⁻¹ | < 1e-05 s⁻¹ | – |
| A15G G40A G59U C67G | < 1e-05 s⁻¹ | < 1e-05 s⁻¹ | – |
| A14G C50G G51C C61U U69A | 0.000136 ± 6.5e-05 s⁻¹ | – | – |
| A14U G37A A52U G60U | < 1e-05 s⁻¹ | – | – |
| A14C A42U A64U | < 1e-05 s⁻¹ | < 1e-05 s⁻¹ | – |
| A14U G29A G62A U69G | 7.37e-05 ± 2.9e-05 s⁻¹ | – | – |
| A12C G43A C61U | < 1e-05 s⁻¹ | < 1e-05 s⁻¹ | – |
| C16A C34G C68G | 0.000145 ± 4.7e-05 s⁻¹ | 0.000193 ± 6.5e-05 s⁻¹ | 4.24e-05 ± 2e-05 s⁻¹ |
| A12G C16A A52U U57G | < 1e-05 s⁻¹ | – | – |
| G13C G29U C71G | < 1e-05 s⁻¹ | – | – |
| A14G G35A G43A C61U | < 1e-05 s⁻¹ | – | – |
| A12C C34A U69C | < 1e-05 s⁻¹ | – | – |
| A12G G37U A48G | < 1e-05 s⁻¹ | < 1e-05 s⁻¹ | – |
| A14U U30G U69G C71G | 0.000132 ± 4.4e-05 s⁻¹ | 0.00026 ± 5.9e-05 s⁻¹ | – |
| A12C U46A G62C | < 1e-05 s⁻¹ | – | – |
| A12C U30A U56A | 0.000365 ± 0.00012 s⁻¹ | 0.00105 ± 0.00026 s⁻¹ | 0.00357 ± 0.00086 s⁻¹ |
| A14G C16A G62C | < 1e-05 s⁻¹ | – | – |
| C16U C58U C67U C70U | 0.000267 ± 6.7e-05 s⁻¹ | 6.37e-05 ± 2.5e-05 s⁻¹ | – |
